According to patent US20240165282A1, “CONFORMATIONAL CONSTRAINED SOMATOSTATIN RECEPTOR 3 PEPTIDE LIGANDS AND THEIR CONJUGATES AND USES THEREOF” (STARGET PHARMA LTD., priority 2021, published 2024):
*1 amine or outer side, *2 acyl side, *3 side chain or, on linkers, in order; H or OH if unused. Bridges are numbered along the chain shown (N, C = ends). [ ]: non-standard residue; d: D form. The star is where a group is joined. DOTA = O=C(O)CN1CCN(CC(=O)O)CCN(CC(=O)*)CCN(CC(=O)O)CC1; N(2-mercaptoethyl)Gly = O=C(CN(CCS[*:3])[*:1])[*:2]; Orn = NCCC[C@H](N)C(=O)O; GABA = NCCCC(=O)O

Experiments:
Test in all cases: Radioligand binding, displacement of 125I-Tyr11-SRIF-14
SSTR3 = SSTR3 (Homo sapiens, UniProt P32745); design: host or cells: CHO (Chinese Hamster Ovary) cells, membrane preparation; settings: for % displacement of [^125I] Tyr^11-SRIF-14: hSSTR-3; for affinity and selectivity to SSTR3 (in words): binding data
Chain of SSTR3 (P32745 whole entry): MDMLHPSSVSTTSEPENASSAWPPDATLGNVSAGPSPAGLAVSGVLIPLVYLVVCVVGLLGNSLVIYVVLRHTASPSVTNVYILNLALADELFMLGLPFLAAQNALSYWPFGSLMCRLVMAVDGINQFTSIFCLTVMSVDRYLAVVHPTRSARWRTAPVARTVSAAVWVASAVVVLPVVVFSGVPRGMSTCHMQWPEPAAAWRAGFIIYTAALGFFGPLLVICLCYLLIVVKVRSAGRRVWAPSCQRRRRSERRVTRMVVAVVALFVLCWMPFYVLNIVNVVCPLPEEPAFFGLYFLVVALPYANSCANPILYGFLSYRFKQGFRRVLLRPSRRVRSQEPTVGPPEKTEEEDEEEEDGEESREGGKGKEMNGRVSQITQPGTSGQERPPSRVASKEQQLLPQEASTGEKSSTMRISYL
Source text: (§1) The binding to human cloned receptors SSTR-1, or SSTR-2 or SSTR-3 evaluated in stable and selective transfected CHO (Chinese Hamster Ovary) cells and binding to STSR-4 and SSTR-5 in stable and selective transfected Chem-1 (Rat ChemiSCREEN) cells. […] The binding reactions were filtered, the filters were washed, and the bound radioactivity was counted using a gamma counter.
(§2) The following table depicts the conditions of binding assay to each of the somatostatin receptors used for the evaluations of binding affinities of the tested peptides. All assays were performed by quantitation method of radioligand binding under 25° C. The vehicle was 1% DMSO, the incubation buffer was 25 mM HEPES, pH 7.4, 5 mM MgCl2, 1 mM CaCl2, 0.1% BSA. […] The significance criteria were >50% of max inhibition. […] This specific binding data used for calculation of Bmax values which is the concentration of each of the expressed cloned receptor in its transfected cell system.
(§3) The Results of IC50 values were determined by a non-linear, least squares regression analysis using MathIQ™ (ID Business Solutions Ltd., UK). […] The Hill coefficient (nH), defining the slope of the competitive binding curve, was calculated using MathIQ™.

SSTR1 = SSTR1 (Homo sapiens, UniProt P30872); design: host or cells: CHO (Chinese Hamster Ovary) cells, membrane preparation; settings: hSSTR-1
Chain of SSTR1 (P30872 whole entry): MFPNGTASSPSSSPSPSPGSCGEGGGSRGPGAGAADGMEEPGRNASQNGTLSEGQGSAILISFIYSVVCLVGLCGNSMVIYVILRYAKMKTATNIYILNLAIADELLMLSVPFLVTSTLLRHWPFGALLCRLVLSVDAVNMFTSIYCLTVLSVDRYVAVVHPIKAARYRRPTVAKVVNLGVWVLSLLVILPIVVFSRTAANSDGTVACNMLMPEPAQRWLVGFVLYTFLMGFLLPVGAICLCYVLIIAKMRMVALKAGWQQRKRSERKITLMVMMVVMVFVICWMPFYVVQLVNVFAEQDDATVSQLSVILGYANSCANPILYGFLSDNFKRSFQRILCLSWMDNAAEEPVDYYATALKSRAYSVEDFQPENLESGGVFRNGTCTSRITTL
Source text: as §1, §2, §3

SSTR2 = SSTR2 (Homo sapiens, UniProt P30874); design: host or cells: CHO (Chinese Hamster Ovary) cells, membrane preparation; settings: hSSTR-2
Chain of SSTR2 (P30874 whole entry): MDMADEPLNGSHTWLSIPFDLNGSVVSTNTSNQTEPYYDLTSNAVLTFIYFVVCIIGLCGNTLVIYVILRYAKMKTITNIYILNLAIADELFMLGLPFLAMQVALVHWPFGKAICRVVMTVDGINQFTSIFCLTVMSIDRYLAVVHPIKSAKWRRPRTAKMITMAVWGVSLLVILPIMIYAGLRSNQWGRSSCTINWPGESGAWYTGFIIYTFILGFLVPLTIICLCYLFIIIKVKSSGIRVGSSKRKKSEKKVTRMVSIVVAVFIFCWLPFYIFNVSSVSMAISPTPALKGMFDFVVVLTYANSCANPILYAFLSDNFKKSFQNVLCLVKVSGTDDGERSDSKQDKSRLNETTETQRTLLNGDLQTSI
Source text: as §1, §2, §3

SSTR5 = SSTR5 (Homo sapiens, UniProt P35346); design: host or cells: Chem-1 (Rat ChemiSCREEN) cells, membrane preparation; settings: hSSTR-5
Chain of SSTR5 (P35346 whole entry): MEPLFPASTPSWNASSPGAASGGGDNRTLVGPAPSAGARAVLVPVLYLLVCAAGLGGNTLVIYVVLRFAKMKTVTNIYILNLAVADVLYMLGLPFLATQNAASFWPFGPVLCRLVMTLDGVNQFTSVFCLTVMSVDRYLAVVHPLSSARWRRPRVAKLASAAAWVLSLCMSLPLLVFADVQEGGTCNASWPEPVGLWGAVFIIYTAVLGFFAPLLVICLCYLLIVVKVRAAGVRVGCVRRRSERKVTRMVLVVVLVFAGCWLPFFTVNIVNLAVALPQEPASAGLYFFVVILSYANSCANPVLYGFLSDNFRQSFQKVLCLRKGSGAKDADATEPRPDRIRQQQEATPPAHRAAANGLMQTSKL
Source text: as §1, §2, §3

hSSTR-4 = target: T1, hSSTR-4 (Homo sapiens, UniProt P31391); settings: hSSTR-4
T1 construct: host or cells: Chem-1 (Rat ChemiSCREEN) cells, membrane preparation
T1 sequence (P31391 whole entry): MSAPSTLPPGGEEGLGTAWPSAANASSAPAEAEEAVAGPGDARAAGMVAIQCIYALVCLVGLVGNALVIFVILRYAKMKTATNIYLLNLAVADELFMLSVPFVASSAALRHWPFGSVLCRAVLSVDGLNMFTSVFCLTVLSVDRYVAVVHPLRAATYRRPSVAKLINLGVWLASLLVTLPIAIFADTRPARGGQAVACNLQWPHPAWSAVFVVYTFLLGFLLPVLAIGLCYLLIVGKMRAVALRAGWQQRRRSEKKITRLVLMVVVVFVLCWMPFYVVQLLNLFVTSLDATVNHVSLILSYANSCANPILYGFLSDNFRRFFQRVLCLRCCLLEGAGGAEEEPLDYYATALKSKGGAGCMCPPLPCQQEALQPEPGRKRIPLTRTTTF
Source text: as §1, §2, §3

Row | Substance | % displacement of [^125I] Tyr^11-SRIF-14 (SSTR3; at 1 nM (in brackets)) [%] | % displacement of [^125I] Tyr^11-SRIF-14 (SSTR3; at 10 nM) [%] | % displacement of [^125I] Tyr^11-SRIF-14 (SSTR1; at 1 nM (in brackets)) [%] | % displacement of [^125I] Tyr^11-SRIF-14 (SSTR1; at 10 nM) [%] | % displacement of [^125I] Tyr^11-SRIF-14 (SSTR2; at 1 nM (in brackets)) | % displacement of [^125I] Tyr^11-SRIF-14 (SSTR2; at 10 nM) | % displacement of [^125I] Tyr^11-SRIF-14 (SSTR5; at 1 nM (in brackets)) | % displacement of [^125I] Tyr^11-SRIF-14 (SSTR5; at 10 nM) | % displacement of [^125I] Tyr^11-SRIF-14 (hSSTR-4; at 1 nM (in brackets)) | % displacement of [^125I] Tyr^11-SRIF-14 (hSSTR-4; at 10 nM) | affinity and selectivity to SSTR3 (in words) (SSTR3)
1 | DOTA-D-Phe^1-Glu^2-Orn^3-Cys^4-Phe^5-D-Trp^6-Lys^7-Thr^8-Phe^9-NTEG^10-NH2 (cyclo 4-10) ({DOTA}-[dF]E[Orn]CF[dW]KTF[N(2-mercaptoethyl)Gly]-NH2; disulfide 4-10; SMILES C[C@@H](O)[C@@H]1NC(=O)[C@H](CCCCN)NC(=O)[C@@H](Cc2c[nH]c3ccccc23)NC(=O)[C@H](Cc2ccccc2)NC(=O)[C@@H](NC(=O)[C@H](CCCN)NC(=O)[C@H](CCC(=O)O)NC(=O)[C@@H](Cc2ccccc2)NC(=O)CN2CCN(CC(=O)O)CCN(CC(=O)O)CCN(CC(=O)O)CC2)CSSCCN(CC(N)=O)C(=O)[C@H](Cc2ccccc2)NC1=O) [SEQ ID NO: 23] | 19 | 56 | 4 | 6 | 0(0) % | 0(0) % | 0(0) % | 0(0) % | 0(0) % | 0(0) % | 
2 | DOTA-D-Phe^1-Orn^2-Cys^3-Phe^4-D-Trp^5-Lys^6-Thr^7-Phe^8-NTEG^9-NH2 cyclo 3-9 [SEQ ID NO: 21] | 59 | 93 | 23 | 22 | 0% | 2% | 0(0) % | 0(0) % | 9(9) % | 9(9) % | did not interfere with the affinity and selectivity to SSTR3
3 | DOTA-Gly^1-D-Phe^2-Arg^3-Cys^4-Phe^5-D-Trp^6-Lys^7-Thr^8-Phe^9-NTEG^10-NH2 (cyclo 4-10) ({DOTA}-G[dF]RCF[dW]KTF[N(2-mercaptoethyl)Gly]-NH2; disulfide 4-10; SMILES C[C@@H](O)[C@@H]1NC(=O)[C@H](CCCCN)NC(=O)[C@@H](Cc2c[nH]c3ccccc23)NC(=O)[C@H](Cc2ccccc2)NC(=O)[C@@H](NC(=O)[C@H](CCCNC(=N)N)NC(=O)[C@@H](Cc2ccccc2)NC(=O)CNC(=O)CN2CCN(CC(=O)O)CCN(CC(=O)O)CCN(CC(=O)O)CC2)CSSCCN(CC(N)=O)C(=O)[C@H](Cc2ccccc2)NC1=O) [SEQ ID NO: 11] | 47 | 88 | 2 | 19 | 0(0) % | 0(0) % | 0(0) % | 0(0) % | 0(0) % | 0(0) % | 
4 | DOTA-Lys^1-D-Phe^2-Arg^3-Gly^4-Asp^5-Glu^6-GABA-D-Phe^7-Lys^8-Cys^9-Phe^10-D-Trp^11-Lys^12- Thr^13-Phe^14-NTEG^15-NH2 (cyclo 1-6; cyclo 9-15) ({DOTA}-K[dF]RGDE[GABA][dF]KCF[dW]KTF[N(2-mercaptoethyl)Gly]-NH2; lactam 1-6; disulfide 10-16; not fully specified; printed as DOTA-Lys1-D-Phe2-Arg3-Gly4-Asp5-Glu6-GABA-D-Phe7-Lys8-Cys9-Phe10-D-Trp11-Lys12- Thr13-Phe14-NTEG15-NH2 (cyclo 1-6, cyclo 9-15); numbers in words are those of the source; also: cyclo 1-6 listed as disulfide between Lys1 and Glu6) [SEQ ID NO: 17] | 68 | 91 | 9 | 15 | 11% | 8% | 15% | 13% | 7% | 5% | 
5 | DOTA-Phe^1-D-Phe^2-Arg^3-(Cys^4-Phe^5-D-Trp^6-Lys^7-Thr^8-Phe^9-NTEG^10)-NH2 (cyclo 4-10) ({DOTA}-F[dF]RCF[dW]KTF[N(2-mercaptoethyl)Gly]-NH2; disulfide 4-10; SMILES C[C@@H](O)[C@@H]1NC(=O)[C@H](CCCCN)NC(=O)[C@@H](Cc2c[nH]c3ccccc23)NC(=O)[C@H](Cc2ccccc2)NC(=O)[C@@H](NC(=O)[C@H](CCCNC(=N)N)NC(=O)[C@@H](Cc2ccccc2)NC(=O)[C@H](Cc2ccccc2)NC(=O)CN2CCN(CC(=O)O)CCN(CC(=O)O)CCN(CC(=O)O)CC2)CSSCCN(CC(N)=O)C(=O)[C@H](Cc2ccccc2)NC1=O) [SEQ ID NO: 20] | 66 | 95 | 8 | 14 | 0% | 2% | 0(0) % | 0(0) % | 0(0) % | 0(0) % | 
6 | H-Arg^1-Gly^2-Asp^3-D-Phe^4-Arg^5-Cys^6-Phe^7-D-Trp^8-Lys^9-Thr^10-Phe^11 -NTEG^12-NH^2 (cyclo 6-12) (H-RGD[dF]RCF[dW]KTF[N(2-mercaptoethyl)Gly]-NH2; disulfide 6-12; SMILES C[C@@H](O)[C@@H]1NC(=O)[C@H](CCCCN)NC(=O)[C@@H](Cc2c[nH]c3ccccc23)NC(=O)[C@H](Cc2ccccc2)NC(=O)[C@@H](NC(=O)[C@H](CCCNC(=N)N)NC(=O)[C@@H](Cc2ccccc2)NC(=O)[C@H](CC(=O)O)NC(=O)CNC(=O)[C@@H](N)CCCNC(=N)N)CSSCCN(CC(N)=O)C(=O)[C@H](Cc2ccccc2)NC1=O) [SEQ ID NO: 13] | 36 | 78 | 9 | 15 | 0% | 12% | 0% | 4% | 0(0) % | 0(0) % | did not interfere with the affinity and selectivity of SEQ ID NO: 3 to SSTR3
7 | H-Phe^1-Arg^2-Cys^3-Phe^4-D-Trp^5-Lys^6-Thr^7-Tyr^8-NTEG^9-NH2 (cyclo 3-9) (H-XRCF[dW]KTY[N(2-mercaptoethyl)Gly]-NH2; disulfide 3-9; not fully specified (residue 1); printed as H-Phe1-Arg2-Cys3-Phe4-D-Trp5-Lys6-Thr7-Tyr8-NTEG9-NH2 (cyclo 3-9)) [SEQ ID NO: 26] | 53 | 86 | 0 | 24 | 0(0) % | 0(0) % | 0% | 1% | 0(0) % | 0(0) % | 
